Results published in patent US20250163183A1 (COAGULANT THERAPEUTICS, published 2025).

T1: FVIIa (UniProt P08709 61-466)
T1 construct: also called factor VIIa
T1 sequence (looked up): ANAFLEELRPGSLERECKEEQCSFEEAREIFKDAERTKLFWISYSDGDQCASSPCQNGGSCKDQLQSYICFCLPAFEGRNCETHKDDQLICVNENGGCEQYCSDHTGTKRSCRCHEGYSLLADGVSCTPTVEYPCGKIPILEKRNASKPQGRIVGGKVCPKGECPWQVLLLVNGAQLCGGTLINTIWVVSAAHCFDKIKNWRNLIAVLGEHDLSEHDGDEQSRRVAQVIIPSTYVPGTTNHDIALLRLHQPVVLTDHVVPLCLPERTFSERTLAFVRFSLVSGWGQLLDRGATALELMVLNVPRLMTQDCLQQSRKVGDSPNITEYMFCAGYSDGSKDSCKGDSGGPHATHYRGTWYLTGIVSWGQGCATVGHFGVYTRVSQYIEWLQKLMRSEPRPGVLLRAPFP


Key:
FXIa = biological target: T2, FXIa (UniProt P03951 19-625); assay: ELISA, FXIa coated at 10 µg/mL, HRP-anti-V5, n=3
T2 construct: also called factor XIa
T2 sequence (P03951 19-625 limits assumed): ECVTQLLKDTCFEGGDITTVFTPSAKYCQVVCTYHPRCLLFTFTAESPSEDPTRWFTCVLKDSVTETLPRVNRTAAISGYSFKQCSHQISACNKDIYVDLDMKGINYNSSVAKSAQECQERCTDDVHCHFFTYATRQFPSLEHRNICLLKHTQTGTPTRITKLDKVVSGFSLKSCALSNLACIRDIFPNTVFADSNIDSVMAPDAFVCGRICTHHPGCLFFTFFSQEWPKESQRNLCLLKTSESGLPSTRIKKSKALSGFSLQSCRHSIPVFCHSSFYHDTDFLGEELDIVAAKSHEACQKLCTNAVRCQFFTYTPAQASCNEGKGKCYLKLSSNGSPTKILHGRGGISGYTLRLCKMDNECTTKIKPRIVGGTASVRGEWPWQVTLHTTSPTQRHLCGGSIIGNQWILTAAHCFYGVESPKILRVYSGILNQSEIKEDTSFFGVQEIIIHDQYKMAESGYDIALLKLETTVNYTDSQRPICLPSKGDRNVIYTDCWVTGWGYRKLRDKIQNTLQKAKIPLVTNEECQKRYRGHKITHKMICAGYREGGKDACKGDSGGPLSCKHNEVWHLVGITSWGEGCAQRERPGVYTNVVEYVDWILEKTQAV

FVIIa = biological target: T1, FVIIa; assay: ELISA, FVIIa coated at 10 µg/mL, HRP-anti-V5, n=3
[1] = biological target: T3, human APC-PPACK (active site-blocked APC) (human, UniProt P04070 43-461, active site bound by the tripeptide inhibitor Phe-Pro-Arg-chloromethylketone (PPACK)); assay: ELISA
T3 construct: Bought (Haematologic Technologies)
T3 sequence (P04070 other isoform, or with tags, fused parts or gaps): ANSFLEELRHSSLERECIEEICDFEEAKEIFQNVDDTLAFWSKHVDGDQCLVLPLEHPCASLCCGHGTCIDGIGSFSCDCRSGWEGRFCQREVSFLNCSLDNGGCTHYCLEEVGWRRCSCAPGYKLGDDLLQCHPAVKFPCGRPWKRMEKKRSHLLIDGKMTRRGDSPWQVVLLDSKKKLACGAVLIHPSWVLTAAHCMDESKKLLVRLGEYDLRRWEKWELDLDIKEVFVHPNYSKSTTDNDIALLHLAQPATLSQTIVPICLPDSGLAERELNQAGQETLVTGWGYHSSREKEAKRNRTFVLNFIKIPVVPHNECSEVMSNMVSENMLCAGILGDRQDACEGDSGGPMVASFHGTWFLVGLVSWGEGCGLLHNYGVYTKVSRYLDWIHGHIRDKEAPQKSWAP

[2] = biological target: T4, human protein C (PC) zymogen (human, UniProt P04070 43-197; P04070 200-461); assay: ELISA
T4 construct: Bought
T4 sequence (P04070 43-197, chain 1 of 2): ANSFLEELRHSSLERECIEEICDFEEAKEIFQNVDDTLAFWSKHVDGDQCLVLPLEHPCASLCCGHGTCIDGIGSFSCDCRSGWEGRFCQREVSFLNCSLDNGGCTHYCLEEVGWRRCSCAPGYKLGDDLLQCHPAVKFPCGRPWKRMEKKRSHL
T4 sequence (P04070 200-461, chain 2 of 2): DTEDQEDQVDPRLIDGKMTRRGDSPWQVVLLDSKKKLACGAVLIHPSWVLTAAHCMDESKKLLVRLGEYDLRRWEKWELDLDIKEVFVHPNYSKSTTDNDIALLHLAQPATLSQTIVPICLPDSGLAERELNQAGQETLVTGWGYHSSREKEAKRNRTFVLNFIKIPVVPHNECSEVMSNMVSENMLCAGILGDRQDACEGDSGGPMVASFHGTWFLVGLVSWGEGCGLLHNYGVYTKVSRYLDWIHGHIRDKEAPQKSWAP

| Binder | binding result (FXIa) | binding result (FVIIa) | binding result [1] | binding result [2] |
| --- | --- | --- | --- | --- |
| LP16 (SR16983-R4-P1-A04) (VHH, not shown: small tags and cut ends, Llama VHH purified from E. coli periplasm) VHH: QLQLVESGGGLVEAGGSLRLSCAVSGTTFSANTMVWHRQAPGKQREWVARISSSGTTNYADSVRGRFSLSRGNAKNTVYLQMNSLKPDDTAVYYCNAILPSRSIWGRGTQVTVSS | no binding (tested: 2 µg/mL) | no binding (tested: 2 µg/mL) | – | – |
| LP6 (SR16983-R3-P2-F11) (VHH, not shown: small tags and cut ends, Llama VHH purified from E. coli periplasm) VHH: QLQLVESGGGLVQPGGSLRLSCAASGSIGRLNVMGWFRQAPGKQRELVAVISSDNKKDYADSVQGRFTISRDNSKNTVYLQMNSLKPEDTAVYYCNVRWTMGGNYWGQGTQVTVSS | no binding (tested: 2 µg/mL) | no binding (tested: 2 µg/mL) | – | – |
| SR16983-R2-P2-D05 (VHH) VHH: QVQLVESGGGLVQPGGSLTLSCAASGTIESINDMGWYRQAPGKQRELVAAITSGGSTNYADSVKGRFTISRDNAKNTVYLQMNSLKPEDTAVYYCNAEVKRHYYYDSAGHRYWGQGTQVTVSS | – | – | binds | no binding |
| SR16983-R2-P4-G02 (VHH) VHH: QLQLVESGGGLVQAGGSLRLSCAASGTTFSFVYMGWYRQAPGNQRDLVARISSDGSTNYADSVKGRFTISGDNAKNTVYLQMNSLRPEDTARYYCFYNGHLNKWGQGTQVTVSS | – | – | binds | no binding |
| SR16983-R3-P5-A11 (VHH) VHH: QVQLVESGGGLVQAGGSLGLSCAASGTTFSFVYMGWYRQAPGNQRDLVARISSDGSTNYADSVKGRFTISGDNAKNTVYLQMNNLKPEDTARYYCFYNGHVNKWGQGTQVTVSS | – | – | binds | no binding |
| SR16983-R2P1F04 (VHH) VHH: QLQLVESGGGLVQAGGSLRLSCAASRTTFSFNYMGWYRQAPGNQRDLVARISSGGITNYADSVKGRFTISGDNAKNTVYLQMNSLKPEDTARYYCFYNGHLNKWGQGTQVTVSS | – | – | binds | no binding |
| SR16983-R2-P2-D08 (VHH) VHH: QLQLVESGGGLVQAGDSLRLSCALSGLAASTYAMAWFRQAPGKEREFVSVIDWKGDSTTANSVKGRFTISRDHGKNTVYLQMNSLQPEDTALYYCAARGSPGYVAKLYAHWGRGTQVTVSS | – | – | binds | no binding |
| SR16983-R2P1C11 (VHH) VHH: QLQLVESGGGLVQSGGSLRLSCTASGSTVRVTAGGWYRQAPGNERELVADIDNGGRPTYADSVKGRFTISRDNAKNAVDLQMNNLKPEDTAVYYCFVIAIPDSAPRPRAYWGQGTQVTVSS | – | – | binds | no binding |
| SR16983-R3-P2-A08 (VHH) VHH: QVQLVESGGGLVQAGGSLRLSCAASGRTSSNYNMGWFRQAPGKEREFVAAIPWTGSTTYYADPVKGRFTISRDSTKNTGDLQMNSLKPEDTAVYYCALGRRENYYALLQQRGYDYWGQGTQVTVSS | – | – | binds | no binding |
| SR16983-R2-P4-G01 (VHH) VHH: QLQLVESGGGLVQAGGSLRLSCAASGRTVGSYVMGWFRQAPGKEREFLAANSRSTGNTVYADSVKGRFTISRDDAKNTLYLQMNSLKPEDTAVYYCATRASINYNYANWPYWGQGTQVNVSS | – | – | binds | no binding |
| SR16983-R2P1C10 (VHH) VHH: QLQLVESGGGLVQPGGSLRLSCAASGRIFGSYVMGWFRQAPGKEHEFVAASSRSTGNTVYLDSVKGRFTISRDDAKNTLYLQMNSLKPEDTAVYYCATRASINYNYANWPYRGQGTQVTVSS | – | – | binds | no binding |

Second part, the binder after the results:

| binding result (FXIa) | binding result (FVIIa) | binding result [1] | binding result [2] | Binder |
| --- | --- | --- | --- | --- |
| no binding (tested: 2 µg/mL) | no binding (tested: 2 µg/mL) | – | – | LP17 (SR16983-R4-P1-A09) (VHH, not shown: small tags and cut ends, Llama VHH purified from E. coli periplasm) VHH: QLQLVESGGGLVQPGGSLRLSCAASGTTSSLNLMGWYRQAPGKKRESVAHMTSDGRTDYVDSVKGRFTISRDNSKNTVYLQMNNLKPEDTAVYICYANPFLGSWSNYWGQGTQVTVSS |
| no binding (tested: 2 µg/mL) | no binding (tested: 2 µg/mL) | – | – | LP14 (SR16983-R3-P4-A06) (VHH, not shown: small tags and cut ends, Llama VHH purified from E. coli periplasm) VHH: QLQLVESGGGLVQAGGSLRLSCTASGSTSSIVIISWYRQAPGEQRDLVATINNGGDVDVADFVKGRFTISRDNAKNAVYLQMNNLKPEDTAVYYCSARTPSLRVTWFWGQGTQVTVSS |
| no binding (tested: 2 µg/mL) | no binding (tested: 2 µg/mL) | – | – | LP5 (SR16983-R3-P2-F04) (VHH, not shown: small tags and cut ends, Llama VHH purified from E. coli periplasm) VHH: QVQLVESGGGLVQHGGSLRLSCAVSGSIFTTATMAWYRQAPGKQRDWVAVITTGGSTRYADDVKGRFAISRDNAKNTVYLQMNNLKPEDTAVYYCNAATRLSSTNYWGQGTQVSVSS |
| – | – | binds | no binding | SR16983-R3-P3-F01 (VHH) VHH: EVQLVESGGGLVQAGDSLRLSCARSGLTASTYAMAWFRQAPGKEREFVSVIDWKGDTTYANSVKGRFTISRDNGKNTVYLQMNSLQPEDTALYYCAARGSPAYVARLYAYWGRGTQVTVSS |
| – | – | binds | no binding | SR16983-R3-P4-A08 (VHH) VHH: QLQLVESGGGLVQAGDSLRLSCVFSGLTASTYAMAWFRQAPGKEREFVSVIDWKGDTTYANSVKGRFTISRDNGNKTVYLQMNSLQPEDTALYYCAARGSPGYVARLYAHWGRGTQVTVSS |
| – | – | binds | no binding | SR16983-R3P2E05 (VHH) VHH: QVQLVESGGGLVQAGGSLRLSCTTSGSTFSITAGGWYRQAPGEQRELVADVANDGSTSYAESVKGRFTISRDNAKNIVELQMSSLELEDTAVYVCFVVGISDSTPRPRAYWGQGTQVTVAS |
| no binding (tested: 2 µg/mL) | no binding (tested: 2 µg/mL) | – | – | LP21 (SR16983-R4-P1-D01) (VHH, not shown: small tags and cut ends, Llama VHH purified from E. coli periplasm) VHH: QLQLVESGGGLVQAGESLRLSCVLSGSTFGRNVITWYRQPPGKQREFIAMITTSGSTRYADSVKGRFTMSRDTAKNTAFLQMSNLKLEDTAVYYCWTAIAGQGEYWGQGTQVTVSS |
| – | – | binds | no binding | SR16983-R2-P2-G09 (VHH) VHH: QLQLVESGGGLVQAGGSLRLSCVASGTTFSIEETYWYRLAPGKQRELVAVISGGGNTNYADSVKGRFTISRDNAKNTVYLQMNSLKPEDTAVYYCSARTIATVKWGQGIQVTVSS |
| – | – | binds | no binding | SR16983-R2-P4-B05 (VHH) VHH: QVQLVESGGGLVQAGGSLRLSCAASGRVFGTYVMGWFRQAPGKEREFVAAFSRSTGHITYADSVKGRFTISRDDAKNTLYLQMNSLKPEDTAVYYCATRASINYNYANWPYWGQGTQVTVSS |
| – | – | binds | no binding | SR16983-R3P2G9 (VHH) VHH: QVQLVESGGGLVQPGGSLRLSCAASGRTFGSYVMGWFRQAPGKEREFVAAASRSTGNTVYPDSVKGRFTISRDDAKNTLYLQMNSLKPEDTAVYYCAARASINYNYANWPYWGQGTQVTVSS |
| – | – | binds | no binding | SR16983-R3-P4-E04 (VHH) VHH: QVQLVESGGGLVQAGGSLRLSCAASGRTVGSYAVGWFRQAPGKEREFLAASSRSTGNTVYADSVKGRFTISRDDAKNTLYLQMNSLKPEDTAVYYCATRASINYNYANWPYWGQGTQVTVSS |
| – | – | binds | no binding | SR16983-R3P2A9 (VHH) VHH: QVQLVESGGGLVQAGGSLRLSCAASGRTVGSYVMGWFRQAPGKERELLAASSRSTGNTVYADSVKGRFTISRDDAKNTVFLQMNSLKPEDTAVYYCAARASINYNYANWPYWGQGTQVTVSP |
| – | – | binds | no binding | SR16983-R3P2E7 (VHH) VHH: QLQLVESGGGLVQAGGSLRLSCVASGTTFTIEDIGWYRLAPGKQRELVAIISGGNTNYADSVKGRFTISRDNAKNTVFLQMNSLKPEDTAVYYCNARTKATAKWGRGIQVTVSS |
| – | – | binds | no binding | SR16983-R3P2B6 (VHH) VHH: QLQLVESGGGLVQAGGSLRLACAASGFSFDDYAIGWFRQAPGKEREGVSCITSDGSTYYADSVKGRFTISSDNAKNTVYLQMNILKPEDTAVYYCARGGLLLPKPELFEYWGQGTQVTVSS |
